The target of the assay is JNKK (UniProt P45985). Nature of the assay: cell-based or functional assay.

The values below come from patent publication US20040235112A1.

Sequence of JNKK (P45985 whole entry): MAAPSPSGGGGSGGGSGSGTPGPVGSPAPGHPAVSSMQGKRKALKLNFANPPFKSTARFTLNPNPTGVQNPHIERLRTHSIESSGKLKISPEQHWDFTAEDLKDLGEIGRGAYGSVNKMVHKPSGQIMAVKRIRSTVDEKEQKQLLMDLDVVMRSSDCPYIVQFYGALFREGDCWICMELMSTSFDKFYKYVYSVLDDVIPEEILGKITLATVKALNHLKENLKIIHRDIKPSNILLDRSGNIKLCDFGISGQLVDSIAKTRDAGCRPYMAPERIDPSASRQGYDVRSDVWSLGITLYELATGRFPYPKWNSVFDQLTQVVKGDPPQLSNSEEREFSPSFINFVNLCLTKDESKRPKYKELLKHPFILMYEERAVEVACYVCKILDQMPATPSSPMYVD

MEKK (enzyme) returned a JNKK activation in COS cells cotransfected with MEKK expression vector (immune complex kinase assay with GST-JNK2) (ng expression vector) of 125.
